The source of these data is patent CN109666070A (UNIV TSINGHUA, dated 2019).

In test [1] the target is T1, 生物素标记的RBD融合蛋白 (MERS-CoV, UniProt K9N5Q8 367-606). Description: affinity measurement with biotin-labelled RBD fusion protein; method not stated.
For test [2], the target named is T1, 生物素标记的RBD融合蛋白. Described as above. The source holds these as a separate data set.

B1: 单克隆抗体MERS-4 (antibody, V domains shown)
VH: EVQLVESGGGLVQPGRSLRLSCAASGFTFSNYAMYWVRQAPGKGLEWVALISYDISTDYYADSVKGRFTISRDNSKNTIYLQMNNLRTEDTALYYCAGNDYWGQGTLVTVSS
VL: QSVLTQSPSASGTPGQRVTISCSGSSSNIGNNYVYWYQQLPGTAPKLLIYWNDQRPSGVPDRFSGSKSGTSASLAISGLRSEDEADYYCAAWDDSLSGAVFGGGTQLTVLG
One may read the Kd as the equilibrium constant for the complex coming apart. The koff is the rate constant with which the complex falls apart. A higher koff goes with a short-lived complex. As usually defined, the kon is a measure of how fast the partners come together. Read a high kon as fast association. Take B1: the “fold of Kd against that of MERS-4V2” value with 生物素标记的RBD融合蛋白 [1] was found to be 1.71 fold. For the same molecule, in the test with 生物素标记的RBD融合蛋白 [2], the Ka amounted to 8e+08 M⁻¹, binding was put at a Kd of 1.25 nM, the koff came to 0.00101 s⁻¹ and the kon was found to be 805000 M⁻¹ s⁻¹.
